Experimental data reported in US20260007748A1 (KELONIA THERAPEUTICS, published 2026).

Target: T1, B cell maturation antigen (BCMA) (human, UniProt Q02223 1-184)
T1 construct: BCMA as carried by RPMI-8226 (high BCMA) and Daudi (low BCMA) tumor cells; also called TNFRSF17; tumor necrosis factor receptor superfamily member 17
T1 sequence: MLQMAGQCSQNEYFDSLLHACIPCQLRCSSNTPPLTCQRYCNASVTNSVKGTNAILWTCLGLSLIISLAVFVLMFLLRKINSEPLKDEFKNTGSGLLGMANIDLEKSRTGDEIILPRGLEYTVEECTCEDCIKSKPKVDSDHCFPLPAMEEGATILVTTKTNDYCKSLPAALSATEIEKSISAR
Test: co-culture of transduced PBMCs with RPMI-8226 (high BCMA) or Daudi (low BCMA) cells; recognition read by IFNγ
Method: PBMCs transduced with recombinant lentiviral particles comprising a viral envelope expressing a mutated VSIV-G and a non-viral membrane-bound tropism polypeptide that binds CD3 and a lentiviral vector encoding an MNDU3 promoter operably linked to a polynucleotide encoding a CD8α signal peptide and an anti-BCMA CAR and a WPRE operably linked to the 3′ prime end of the polynucleotide encoding the anti-BCMA CAR (18 anti-BCMA CARs were evaluated) were co-cultured with Daudi cells (low BCMA expression) or RPMI-8226 cells (high BCMA expression) for 24 hours. After 24 hours, IFNγ levels in co-culture supernatant were measured and plotted as a function of % anti-BCMA CAR positive cells in the co-culture.
5×10⁴ PBMCs transduced with recombinant lentiviruses LV 1 to LV 19 were co-cultured with 5×10⁴ high BCMA-expressing tumor cells (RPMI-8226) or 5×10⁴ low BCMA-expressing tumor cells (Daudi) for 24 hours. Anti-BCMA CAR activity was assessed by harvesting co-culture supernatants and measuring IFNγ levels using a Meso Scale Discovery (MSD®) assay. The percentage of anti-BCMA CAR positive cells was plotted against IFNγ levels produced in co-culture. FIG. 2D.

B1: anti-BCMA CAR of recombinant lentivirus LV 9 (SEQ ID NO: 273) (other)
chain: EVQLLESGGGLVQPGGSLRLSCAASGFTFGSEAMSWVRQAPGKERELVSAISGSGEVTYYADSVKGRFTISRDNSKNTLYLQMNSLRAEDTAVYYCQRLVEAKRHWGQGTQVTVSSTTTPAPRPPTPAPTIASQPLSLRPEACRPAAGGAVHTRGLDFACDIYIWAPLAGTCGVLLLSLVITLYCKRGRKKLLYIFKQPFMRPVQTTQEEDGCSCRFPEEEEGGCELRVKFSRSADAPAYQQGQNQLYNELNLGRREEYDVLDKRRGRDPEMGGKPRRKNPQEGLYNELQKDKMAEAYSEIGMKGERRRGKGHDGLYQGLSTATKDTYDALHMQALPPR
notes: Chimeric antigen receptor on transduced human PBMCs: anti-BCMA VHH, CD8α hinge and TM, CD137 costim, CD3ζ; also called LV 9.1 to LV 9.9
binding result: binds
